Kd data for 2 molecules are collected here from patent publication US20260273112A1 (WASHINGTON UNIVERSITY, published 2026).

The test deals with T1, Recombinant human CD38 protein (R&D, Catalog 2404-AC-010) (human, UniProt P28907 43-300).
T1 construct: In the MST assay the protein was labeled with NT647 (red-maleimide kit) and used at 5 nM; also called purified CD38 protein; purified human CD38 protein
Briefly: MST, NT647-labeled recombinant human CD38 at 5 nM, peptide titrated, 37 C. Here is the method:
Microscale thermophoresis (MST) assays determined the binding affinity of synthesized peptides to purified CD38 protein and was performed using the Monolith NT.115 (Nanotemper Technologies, Munich, Germany). […] Recombinant human CD38 protein (R&D, Catalog 2404-AC-010, Minneapolis, MN) was labeled with NT647 (Protein labeling kit red-maleimide, Nanotemper Technologies, Germany) and subsequently diluted to 5 nM in MST-2 buffer (50 mM Tris-HCl, pH 7.4, 150 mM NaCl, 10 mM MgCl₂, 2% DMSO, and 0.1% Tween-20). Fluorescence was assessed in MST-2 buffer. Samples were loaded into NT.115 standard capillaries, and analysis was performed at 37° C., 10% LED power, and 40% MST power. The Kd values were calculated from fragment concentration-dependent changes in normalized fluorescence (Fraction Bound) of different CD38 peptides based on the law of mass action using the MO Affinity Analysis v2.3 software.

B1: AC-SL028-GGS (AC-Phe-Ser-Arg-Asp-Trp-Thr-Ser-Gly-Gly-Ser-Lys-NH2) (peptide)
peptide: FSRDWTSGGSK
modifications: N-terminal acetyl (AC); C-terminal amide (NH2)
By Kd is commonly meant the constant that tells how readily two partners part at equilibrium. Regarding B1, the Kd came out at 243 nM.

B2: GGS-SL028 (H-Lys-Gly-Gly-Ser-Phe-Ser-Arg-Asp-Trp-Thr-Ser-NH2) (peptide)
peptide: H-KGGSFSRDWTS-NH2
notes: Synthetic peptide, high score cluster B
As to B2, the Kd worked out at 82.6 nM.
